According to the supplement of paper PMC6755084:

What follows are sequences tested on F1*sub RNA substrate (template-directed ligation) (assay: fraction ligated after 30 min (ligated reads / total reads); higher = more ligase activity). Conditions: 42 °C.
Procedure: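 Chip-synthesised pool of F1* ligase ribozyme variants (all single and double substitutions, single, double and triple deletions in the catalytic core and GAA bulge, plus designed variants) was transcribed with T7 and reacted as a pool with excess substrate F1*sub for 30 min at 42 C in 50 mM EPPS pH 8.5, 25 mM MgCl2. Ligated and unligated bands were separated by PAGE, barcoded by RT and deep sequenced; fraction ligated = ligated reads / total reads per variant, relative activity = FL / FL of wild type (0.826). Sequences are the DNA template of the ribozyme.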
Work on “GAGACCGCAACTGAAAAGTTGTATCACTTGTCGTAAGACACTTTGGATGGGTTGGTTCTGCACGTAGAAGCAAAAGGC [3d276]” yielded a fraction ligated of 0.00404.
For “GAGACCGCAACTGAAAAGTTGTTACACTTGTCGTAAGACACTTTGGATGGGTTGGTTCTGCACGTAGAAGCAAAAGGC [3d737]”, the fraction ligated was 0.00325.
“GAGACCGCAACTGAAAAGTTGTTATACTTGTCGTAAGACACTTTGGATGGGTTGGTTCTGCACGTAGAAGCAAAAGGC [3d948]” showed a fraction ligated of 0.
For “GAGACCGCAACTGAAAAGTTGTTATCACTGTCGTAAGACACTTTGGATGGGTTGGTTCTGCACGTAGAAGCAAAAGGC [3d1463]”, the fraction ligated was 0.0111.
With “GAGACCGCAACTGAAAAGTTGTTATCACTTGCGTAAGACACTTTGGATGGGTTGGTTCTGCACGTAGAAGCAAAAGGC [3d1704]” the fraction ligated was 0.0839.
Sequence “GAGACCGCAACTGAAAAGTTGTTATCACTTGTCGAAGACACTTTGGATGGGTTGGTTCTGCACGTAGAAGCAAAAGGC [3d1980]” has a fraction ligated of 0.102.
For “GAGACCGCAACTGAAAAGTTGTTATCACTTGTCGTAAACACTTTGGATGGGTTGGTTCTGCACGTAGAAGCAAAAGGC [3d2104]”, the fraction ligated was 0.0572.
“GAGACCGCAACTGAAAAGTTGTTATCACTTGTCGTAAGAACTTTGGATGGGTTGGTTCTGCACGTAGAAGCAAAAGGC [3d2182]” showed a fraction ligated of 0.0451.
“GAGACCGCAACTGAAAAGTTGTTATCACTTGTCGTAAGACACTTGGATGGGTTGGTTCTGCACGTAGAAGCAAAAGGC [3d2254]” was tested, and the fraction ligated was 0.00633.
“GAGACCGCAACTGAAAAGTTGTTATCACTTGTCGTAAGACACTTTGATGGGTTGGTTCTGCACGTAGAAGCAAAAGGC [3d2270]” was tested, and the fraction ligated was 0.00433.
“GAGACCGCAACTGAAAAGTTGTTATCACTTGTCGTAAGACACTTTGGAGGGTTGGTTCTGCACGTAGAAGCAAAAGGC [3d2280]” gave a fraction ligated of 0.0051.
In the case of “GAGACCGCAACTGAAAAGTTGTTATCACTTGTCGTAAGACACTTTGGATGGGTTCGTTCTGCACGTAGAAGCAAAAGGC [s80]”, the fraction ligated is reported as 0.0169.
Work on “GAGACCGCAACTGAAAAGTTGTTATCACTTGTCGTAAGACACTTTGGATGGGTTGGTTCTGCACGTAGAAGCAAAAGGC [2d299]” yielded a fraction ligated of 0.02.
With “GAGACCGCAACTGAAAAGTTGTTATCACTTGTCGTAAGACACTTTGGATGGGTTGTTCTGCACGTAGAAGCAAAAGGC [3d2283]” the fraction ligated was 0.021.
“GAGACCGCAACTGAAAAGTTGTTATCACTTGTCGTAAGACACTTTGGATGGGTTTGTTCTGCACGTAGAAGCAAAAGGC [s81]” was tested, and the fraction ligated was 0.0148.
For “GAGACCGCAACTGAAAAGTTGTTATCACTTGTCGTAAGACACTTTGGATGGTTGGTTCTGCACGTAGAAGCAAAAGGC [3d2282]”, the fraction ligated was 0.0129.
Sequence “GAGACCGCAACTGAAAAGTTGTTATCACTTGTCGTAAGACACTTTGGTGGGTTGGTTCTGCACGTAGAAGCAAAAGGC [3d2276]” has a fraction ligated of 0.00831.
“GAGACCGCAACTGAAAAGTTGTTATCACTTGTCGTAAGACATTTGGATGGGTTGGTTCTGCACGTAGAAGCAAAAGGC [3d2230]” gave a fraction ligated of 0.00375.
“GAGACCGCAACTGAAAAGTTGTTATCACTTGTCGTAAGACCTTTGGATGGGTTGGTTCTGCACGTAGAAGCAAAAGGC [3d2206]” showed a fraction ligated of 0.0611.
Work on “GAGACCGCAACTGAAAAGTTGTTATCACTTGTCGTAAGCACTTTGGATGGGTTGGTTCTGCACGTAGAAGCAAAAGGC [3d2151]” yielded a fraction ligated of 0.116.
“GAGACCGCAACTGAAAAGTTGTTATCACTTGTCGTAGACACTTTGGATGGGTTGGTTCTGCACGTAGAAGCAAAAGGC [3d2058]” was tested, and the fraction ligated was 0.0726.
Work on “GAGACCGCAACTGAAAAGTTGTTATCACTTGTCTAAGACACTTTGGATGGGTTGGTTCTGCACGTAGAAGCAAAAGGC [3d1901]” yielded a fraction ligated of 0.0966.
Sequence “GAGACCGCAACTGAAAAGTTGTTATCACTTGTGTAAGACACTTTGGATGGGTTGGTTCTGCACGTAGAAGCAAAAGGC [3d1809]” has a fraction ligated of 0.0204.
“GAGACCGCAACTGAAAAGTTGTTATCACTTTCGTAAGACACTTTGGATGGGTTGGTTCTGCACGTAGAAGCAAAAGGC [3d1584]” showed a fraction ligated of 0.0193.
With “GAGACCGCAACTGAAAAGTTGTTATCATTGTCGTAAGACACTTTGGATGGGTTGGTTCTGCACGTAGAAGCAAAAGGC [3d1292]” the fraction ligated was 0.00677.

The sequences below were run on F1*sub RNA substrate (template-directed ligation) (assay: fraction ligated after 30 min (ligated reads / total reads); higher = more ligase activity; sequences stand for … in GAGACCGCAACTGAAAAGTTGT…AGTTCTGCACGTAGAAGCAAAAGGC). Conditions: 42 °C.
Summary of the method: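 Oligo-pool templates underwent PCR amplification, T7 transcription and gel purification to yield ribozyme variants. Gel-separated ligated and unligated bands were converted to complementary DNA with barcoded primers and sequenced on a MiSeq, keeping core bases of quality ≥20. The ratio of ligated reads to total reads gave the fraction ligated for every variant.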
Work on TTCACTTGTGTAAGACATTTGGATGGGTTGA [3d394] yielded a fraction ligated of 0.778.
Sequence TTCACTTGTGTAAGACCTTTGGATGGGTTGA [3d393] has a fraction ligated of 0.548.
With TTCACTTGTGTAAGCACTTTGGATGGGTTGA [3d391] the fraction ligated was 0.775.
Work on TTCACTTGTGTAGACACTTTGGATGGGTTGA [3d389] yielded a fraction ligated of 0.762.
TTCACTTGTTAAGACACTTTGGATGGGTTGA [3d387] showed a fraction ligated of 0.775.
TTCACTTTCGAAGACACTTTGGATGGGTTGA [3d357] gave a fraction ligated of 0.145.
TTCACTTTCGTAAACACTTTGGATGGGTTGA [3d359] was tested, and the fraction ligated was 0.0493.
Sequence TTCACTTTCGTAAGAACTTTGGATGGGTTGA [3d361] has a fraction ligated of 0.832.
TTCACTTTCGTAAGACACTTGGATGGGTTGA [3d364] was tested, and the fraction ligated was 0.13.
For TTCACTTTCGTAAGACACTTTGATGGGTTGA [3d365], the fraction ligated was 0.0352.
Sequence TTCACTTTCGTAAGACACTTTGGAGGGTTGA [3d367] has a fraction ligated of 0.0281.
TTCACTTTCGTAAGACACTTTGGATGGGTTA [3d369] was tested, and the fraction ligated was 0.0133.
Sequence TTCACTTTCGTAAGACACTTTGGATGGGTTG [3d370] has a fraction ligated of 0.184.
Sequence TTCACTTTCGTAAGACACTTTGGATGGGTTGA [2d29] has a fraction ligated of 0.501.
Sequence TTCACTTTCGTAAGACACTTTGGATGGTTGA [3d368] has a fraction ligated of 0.0816.
For TTCACTTTCGTAAGACACTTTGGTGGGTTGA [3d366], the fraction ligated was 0.00787.
TTCACTTTCGTAAGACATTTGGATGGGTTGA [3d363] was tested, and the fraction ligated was 0.775.
For TTCACTTTCGTAAGACCTTTGGATGGGTTGA [3d362], the fraction ligated was 0.437.
In the case of TTCACTTTCGTAAGCACTTTGGATGGGTTGA [3d360], the fraction ligated is reported as 0.466.
